The values that follow come from US20240191241, “APTAMERS FOR USE IN THE […] OF CORONAVIRIDAE INFECTIONS” (Berlin Cures GmbH, published 2024).

For series [1], the target named is T1, SARS-CoV-2 spike receptor-binding domain peptide No. 4 (YRLFRK) (SARS-CoV-2).
T1 chain: YRLFRK
The experiment in a line: NMR; quadruplex imino signals induced by peptide; 1 mM each, 90/10 H2O/D2O, 298 K, no additives. To be noted: tags: isolated peptide; G4.

In series [2] the target is T2, SARS-CoV-2 spike receptor-binding domain control peptide NRKRISN (SARS-CoV-2).
T2 chain: NRKRISN
The experiment in a line: NMR: nearly complete absence of quadruplex formation; also used as control in ITC (50 mM sodium phosphate, 150 mM NaCl, pH 7.16, 25 C). To be noted: tags: isolated peptide; G4.

For series [3], the target named is T3, SARS-CoV-2 RNA-dependent RNA polymerase peptide LYRNRDV (SARS-CoV-2).
T3 chain: LYRNRDV
Kind of series: NMR; quadruplex fold induced by peptide; 90/10 H2O/D2O, 298 K. To be noted: tags: isolated peptide; G4.

Series [4] concerns the target T4, SARS-CoV-2 RNA-dependent RNA polymerase peptide HRFYRLAN (SARS-CoV-2).
T4 chain: HRFYRLAN
Kind of series: ITC; 1:1 stoichiometry; 50 mM sodium phosphate, 150 mM NaCl, pH 7.06, 25 C; quadruplex induction also by NMR; Kd not given. As to conditions: tags: isolated peptide; G4. On the technique in general: ITC needs no label: the signal is the heat of the interaction.

A further series addresses Thrombin (Homo sapiens, UniProt P00734;P00734 P00734:328-363,P00734:364-622). The experiment in a line: ELONA.

B1: BC007 (ssDNA)
DNA: GGTTGGTGTGGTTGG
As to B1, the binding result is “binds” in series [1], “no binding” in series [2], “binds” in series [3] and “binds” in series [4].

B2: BC007 5'-biotinylated (ssDNA)
DNA: GGTTGGTGTGGTTGG
B2: the binding result with Thrombin is listed as “binds”.
